These results are taken from patent US20250042994A1 (HAINAN SIMCERE ZAIMING PHARMACEUTICAL, published 2025).

One may read the EC50 (read off the curve) as the concentration needed to bring the measured effect to its halfway point. Low values mean higher potency in that assay, high ones lower potency in that assay.

The chains are these.
T1: Human CD19-his protein (human, UniProt P15391 20-291)
T1 construct: bought protein; also called human CD19 protein; recombinant human CD19-His; not shown: His tag
T1 sequence (looked up): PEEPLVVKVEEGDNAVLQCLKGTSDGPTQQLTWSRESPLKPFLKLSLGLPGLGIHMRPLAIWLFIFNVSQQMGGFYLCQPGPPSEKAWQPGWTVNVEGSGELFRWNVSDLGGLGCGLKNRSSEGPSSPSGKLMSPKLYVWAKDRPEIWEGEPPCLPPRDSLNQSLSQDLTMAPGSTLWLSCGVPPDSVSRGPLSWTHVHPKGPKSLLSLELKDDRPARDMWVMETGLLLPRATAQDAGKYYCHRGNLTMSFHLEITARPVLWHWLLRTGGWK

T2: human CD19 exon1-3-his protein (human, UniProt P15391 20-186, limits assumed)
T2 construct: made in HEK293E cells; also called membrane-distal end; not shown: His tag
T2 sequence (looked up): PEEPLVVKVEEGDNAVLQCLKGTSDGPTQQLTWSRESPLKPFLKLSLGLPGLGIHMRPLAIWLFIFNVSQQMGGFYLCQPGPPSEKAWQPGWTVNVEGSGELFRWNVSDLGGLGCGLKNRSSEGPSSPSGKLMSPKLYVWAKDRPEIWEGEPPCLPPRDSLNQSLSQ

T3: murine CD19 protein (murine, UniProt P25918 17-287, limits assumed)
T3 construct: bought protein; also called commercial murine CD19
T3 sequence (looked up): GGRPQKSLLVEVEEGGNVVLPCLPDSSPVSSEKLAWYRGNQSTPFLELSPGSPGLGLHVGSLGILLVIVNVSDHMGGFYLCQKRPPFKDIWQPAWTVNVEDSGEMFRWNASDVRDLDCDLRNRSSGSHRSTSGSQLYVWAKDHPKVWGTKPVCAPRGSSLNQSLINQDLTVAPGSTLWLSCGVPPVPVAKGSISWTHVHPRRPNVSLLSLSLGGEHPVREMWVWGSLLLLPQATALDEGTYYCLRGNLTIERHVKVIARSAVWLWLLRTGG

B1: F3.113.16 (antibody, human IgG1, V domains shown)
VH: QVQLQQPGAELVKPGASVKLSCKASGYTFTNYWMQWVKQRPGQGLEWIGEIDPSDSYINYNQKFKGKATLTADTSSSTAYMQLSSLTYEDSAVYYCARPVTVPWYFDVWGTGTTVTVSS
VL: EIVLTQSPTTMAASPGEKITITCSATSSISSNYLHWYQQKPGFSPKLLIYRTSNLASGVPARFSGSGSGTSYSLTIGTMEAEDVATYYCQQGSAIPRIFTFGSGTKLEIK
notes: human-murine chimeric antibody, human IgG1
B2: F3.133.14 (antibody, human IgG1, V domains shown)
VH: QVQLQQPGAELVMPGASVKLSCKASGYTFTNYWMHWVKQRPGQGLEWIGEIDPSDYYANYNQKFKGKATLTVDKSSSTAYMQLSSLTSEDSAVYYCARSHYYANSYNYWGQGTTLTVSS
VL: B1 VL with V3E, T26S, N32D, V59L, A94S, I95V, I98M, F99L, S103A, I109L
notes: as for B1
B3: F3.121.4 (antibody, human IgG1, V domains shown)
VH: QVQLQQPGAELVVPGTSVKLSCKASGYTFTNYWMHWVKQRPGQGLEWIGEIDPSDNYANYNQEFQGKATLTVDKSSSTAYMQLSSLTSDDSAVYYCARHDGYFGALDYWGQGTSVTVSS
VL: B1 VL with T26S, L47F, G92A, A94S, I98M
notes: human-murine chimeric antibody, human IgG1; also called chimeric antibody F3.121.4
B4: F4.21.2 (antibody, human IgG1, V domains shown)
VH: QVQLKQSGPGLVQPSQSLSITCTVSGFSLSTYGVHWVRQSPGRGLEWLGVIWIGGTTDYNAAFISRLTISKDNSRGQVFFKMDSLQANDTAIYYCARKGYYKYDGGYYYAMDYWGQGTSVTVSS
VL: DIQMTQSSSYLSVSLGGRVTITCKASDHINNWLAWYQQKPGNAPWLLISGATSLETGVPSRFSGSGSGKDYTLSISSLQTEDVATYYCQQYWSTPLTFGAGTKLELK
notes: as for B1
B5: F4.272.13 (antibody, human IgG1, V domains shown)
VH: QVQLKESGPGLVAPSQSLSITCTVSGFSLTDYGVSWIRQPPGKGLEWLGVIWGSETTFYNSALKSRLSISKDNSKSQLFLQMNSLQADDTAIYYCAKHHYYGGSFSMDYWGQGTSVTVSS
VL: DIQMTQTTSSLSASLGDRVTISCRASQDINNYLNWYQQKPDGTVKFLIYYTSRLHSGVPSRFSGSGSGTDYSLTISDLEQEDIATYFCQQGNTLPYTFGGGTKLEIK
notes: as for B1
B6: F2.15.26 (antibody, human IgG1, V domains shown)
VH: QVQLKESGPGLVAPSQSLSITCTVSGFSLTDYGVSWIRQSPGKGLEWLGVIWGSGDTYYNSVLESRLSINKDNSKNQVFLKMNSLQTDDAAMYFCAKHSYYGGSFAMDYWGQGTSVTVSS
VL: B5 VL with N30S, F46L, D77N, N92K, Y96W
notes: as for B1
B7: F4.18.13 (antibody, human IgG1, V domains shown)
VH: QVQLQQSGPELVKPGASVKISCKASGYAFSSFWMNWVKQRPGEGLEWIGRIYPGDGDTNYNGKFKGKATLTADDSSSTAYMQLSSLTSVDSAVYFCAREVIAAVVTTDFDYWGQGTTLTVSS
VL: B5 VL with A25T, N30S, Q37L, F46L, R53G, D77N, Q80P, N92K
notes: as for B1
B8: F1-mab003 (antibody, human IgG1, V domains shown)
VH: EVQLQQSGPELVKPGASVKMSCKASGYTFTDYVMHWVRQTPGQGLEWIGYFNPYNDGTNYNEKFKVKATLTSDKSSTTAYMELSSLTSEDSAVYYCARGVYYYGRDFDYWGQGTTLTVSS
VL: DVVLTQTPLSLPVSLGDQASISCRSSQSLENSNGNSYLNWYLQKPGQSPQLLIYRVSNRFSGVLDRFSGSGSGTDFTLKISRVEAEDLGVYFCLQITHVPWTFGGGTKLEIK
notes: as for B1
B9: F3.64.4 (antibody, human IgG1, V domains shown)
VH: EVQLQQSGPELVKPGASVKISCKASGYTFTDYHINWVKQSHGKSPEWIGDINPNNGGTTYNQKFKDKATLTVDKSSSTAFMELRSLTSEDSAVYYCARFITTVVAWYFDVWGTGTTVTVSS
VL: DIQMTQSPASLSVSVGETVTITCRASENIYSNLAWYQQKQGKSPQLLVYAATNLADGVPSRFSGSGSGTQYSLKINSLQSEDFGNYYCQRFWDTPRTFGGGTKLEIK
notes: as for B1

Substitutions are numbered along the chain they refer to.

The target in the first assay is T1, Human CD19-his protein. The assay can be described thus: ELISA, antibody at 1.00 nM. For orientation: In an ELISA, binding on a coated surface is turned into a signal by an enzyme label.
B1 registered an OD450 of 0.26.
Regarding B2, the OD450 is 1.59.
B3: the OD450 is 0.88.
On to B4, for which the OD450 was 1.98.
The molecule B5 gave an OD450 of 2.14.
On to B6, for which the OD450 is 1.3.
Same read-out and setting: to B7 belongs 2.01; to B8, 1.58; to B9, 1.06.

The target of the next assay is T2, human CD19 exon1-3-his protein. The assay can be described thus: ELISA, coated at 2 ug/mL.
B1: the binding result is “no binding”.
Same read-out and setting: to B2 belongs “no binding”; to B3, “no binding”.
The same measure, in the same setting: next, B4: “no binding”; B5: “no binding”; B6: “no binding”.
Consider B7, for which the binding result was “no binding”.
For B8, the binding result was “no binding”.
Turning to B9, the binding result is “no binding”.

The target of a further assay is T1, Human CD19-his protein. The assay can be described thus: ELISA, antibody at 0.0001 nM.
As to B1, the OD450 was found to be 0.05.
The molecule B2 had an OD450 of 0.05.
In turn, B3 returned an OD450 of 0.05.
Molecule B4 gave an OD450 of 0.07.
In the case of B5, the OD450 amounted to 0.06.
B6 displayed an OD450 of 0.05.
On the same count and under the same terms, to B7 belongs 0.05; to B8, 0.06; to B9, 0.05.

The next assay has as its target T1, Human CD19-his protein. Briefly: ELISA on coated human CD19-His.
For B1, the “EC50 (read off the curve)” value is ~0.5 nM.
Take B2: the “EC50 (read off the curve)” value was ~0.2 nM.
Take B3: the “EC50 (read off the curve)” value is ~0.1 nM.
For the molecule B4, the “EC50 (read off the curve)” value was ~0.07 nM.
Same read-out and setting: next, B5: ~0.04 nM; B6: ~0.09 nM; B7: ~0.05 nM.
In the case of B8, the “EC50 (read off the curve)” value is ~0.07 nM.
Still for that read-out and setting: next, B9: ~0.1 nM.

Another assay addresses T1, Human CD19-his protein. Briefly: ELISA, antibody at 10 nM.
The molecule B1 displayed an OD450 of 0.34.
For the molecule B2, the OD450 was determined as 1.87.
Molecule B3 came in with an OD450 of 1.04.
For B4, the OD450 stood at 1.94.
Molecule B5 gave an OD450 of 2.14.
Same read-out and setting: next, B6: 1.4.
Still for that read-out and setting: next, B7: 1.96; B8: 1.72.
Molecule B9 gave an OD450 of 1.

Another assay has as its target T3, murine CD19 protein. Briefly: ELISA, coated murine CD19. The essentials:
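Plates coated overnight at 4° C with recombinant murine or monkey CD19 and blocked with 2% BSA. Chimeric antibodies, serially diluted from 100 nM, bound for 2 h at 37° C. TMB development for 10 min with OD450 read-out.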
Consider B1, for which the binding result was “no binding”.
On to B2, for which the binding result was “no binding”.
Same read-out and setting: to B3 belongs “no binding”; to B4, “no binding”; to B5, “no binding”.
In the case of B6, the binding result was “no binding”.
On the same count and under the same terms, next, B7: “no binding”; B8: “no binding”.
Turning to B9, the binding result is “no binding”.

In the next assay the target is T1, Human CD19-his protein. The assay can be described thus: ELISA, antibody at 0.01 nM.
As for B1, the OD450 was determined as 0.06.
Consider B2, for which the OD450 was found to be 0.12.
Consider B3, for which the OD450 stood at 0.11.
Consider B4, for which the OD450 turned out to be 0.29.
On to B5, for which the OD450 is 0.33.
B6 came in with an OD450 of 0.18.
B7 yielded an OD450 of 0.25.
Molecule B8 gave an OD450 of 0.28.
With B9, the OD450 turned out to be 0.13.

In a further assay the target is T1, Human CD19-his protein. Briefly: ELISA, antibody at 100 nM.
B1 had an OD450 of 0.38.
B2 had an OD450 of 1.62.
Regarding B3, the OD450 worked out at 0.82.
Turning to B4, the OD450 worked out at 1.9.
Take B5: the OD450 is 2.25.
The molecule B6 gave an OD450 of 1.54.
For B7, the OD450 came out at 1.69.
Molecule B8 yielded an OD450 of 1.98.
In the case of B9, the OD450 was found to be 0.83.

The next assay has as its target T1, Human CD19-his protein. Briefly: ELISA, antibody at 0.001 nM.
For the molecule B1, the OD450 stood at 0.05.
On to B2, for which the OD450 was 0.07.
Still for that read-out and setting: to B3 belongs 0.06.
On to B4, for which the OD450 worked out at 0.1.
Take B5: the OD450 stood at 0.09.
For the molecule B6, the OD450 stood at 0.07.
In the case of B7, the OD450 is 0.08.
The same measure, in the same setting: to B8 belongs 0.08; to B9, 0.06.

The next assay deals with T1, Human CD19-his protein. Briefly: ELISA, antibody at 0.10 nM.
B1 returned an OD450 of 0.11.
In turn, B2 had an OD450 of 0.58.
The molecule B3 yielded an OD450 of 0.5.
Consider B4, for which the OD450 is 1.1.
Same read-out and setting: to B5 belongs 1.56.
The molecule B6 registered an OD450 of 0.8.
In the case of B7, the OD450 was 1.32.
For B8, the OD450 was 1.09.
Same read-out and setting: next, B9: 0.55.
